Data reported in the supplement of paper PMC10567573.

B1: BTBD10 (parent)
chain: DRKLHSRPRKLYKHSSTSSRIAKG

Variants of: B1
Assay: protein stability index of a GFP-peptide fusion (GPS, HEK-293T) (PSI 1-6); higher = more stable
Details: c terminus: a fixed tail appended
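Further: lentivirally expressed fusions sorted by FACS into six bins by GFP to DsRed ratio, PSI derived from sequencing read proportions per bin multiplied by bin number.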

Point of comparison: DRKLHSRPRKLYKHSSTSSRIAKT [G24T], protein stability index 4. Against it:
- DRKLHSRPRKLYKHSSTSSGIAKG [R20G] — lower, 3.62
- DRKLHSRPRKLYKHSSTSSLIAKG [R20L] — lower, 3.94
- DRKLHSRPRKLYKHSSTSSFIAKG [R20F] — lower, 3.6
- DRKLHSRPRKLYKHSSTSSIIAKG [R20I] — lower, 3.66
- DRKLHSRPRKLYKHSSTSSHIAKG [R20H] — higher, 4.24
- DRKLHSRPRKLYKHSSTSSVIAKG [R20V] — lower, 3.96
- DRKLHSRPRKLYKHSSTSSMIAKG [R20M] — higher, 4.06
- DRKLHSRPRKLYKHSSTSSKIAKG [R20K] — lower, 3.92
- DRKLHSRPRKLYKHSSTSSDIAKG [R20D] — higher, 4.28
- DRKLHSRPRKLYKHSSTSSEIAKG [R20E] — higher, 4.04
- DRKLHSRPRKLYKHSSTSSSIAKG [R20S] — lower, 3.85
- DRKLHSRPRKLYKHSSTSSPIAKG [R20P] — lower, 3.6
- DRKLHSRPRKLYKHSSTSSQIAKG [R20Q] — higher, 4.2
- DRKLHSRPRKLYKHSSTSSNIAKG [R20N] — higher, 4.21
- DRKLHSRPRKLYKHSSTSSWIAKG [R20W] — lower, 2.97
- DRKLHSRPRKLYKHSSTSSTIAKG [R20T] — higher, 4.13
- DRKLHSRPRKLYKHSSTSSCIAKG [R20C] — lower, 3.39
- DRKLHSRPRKLYKHSSTSSAIAKG [R20A] — lower, 3.9
- DRKLHSRPRKLYKHSSTSSYIAKG [R20Y] — lower, 3.94
- DRKLHSRPRKLYKHSWTSSRIAKG [S16W] — lower, 3.25
- DRKLHSRPRKLYKHSITSSRIAKG [S16I] — lower, 3.65
- DRKLHSRPRKLYKHSFTSSRIAKG [S16F] — lower, 2.17
- DRKLHSRPRKLYKHSQTSSRIAKG [S16Q] — higher, 4.18
- DRKLHSRPRKLYKHSTTSSRIAKG [S16T] — higher, 4.35
- DRKLHSRPRKLYKHSNTSSRIAKG [S16N] — higher, 4.28
- DRKLHSRPRKLYKHSRTSSRIAKG [S16R] — lower, 3.78
- DRKLHSRPRKLYKHSKTSSRIAKG [S16K] — lower, 2.94
- DRKLHSRPRKLYKHSPTSSRIAKG [S16P] — lower, 3.87
- DRKLHSRPRKLYKHSHTSSRIAKG [S16H] — lower, 3.55
- DRKLHSRPRKLYKHSMTSSRIAKG [S16M] — the same, 4
- DRKLHSRPRKLYKHSYTSSRIAKG [S16Y] — lower, 3.45
- DRKLHSRPRKLYKHSGTSSRIAKG [S16G] — lower, 3.52
- DRKLHSRPRKLYKHSCTSSRIAKG [S16C] — lower, 3.43
- DRKLHSRPRKLYKHSVTSSRIAKG [S16V] — higher, 4.03
- DRKLHSRPRKLYKHSATSSRIAKG [S16A] — higher, 4.32
- DRKLHSRPRKLYKHSDTSSRIAKG [S16D] — lower, 3.83
- DRKLHSRPRKLYKHSETSSRIAKG [S16E] — lower, 3.99
- DRKLHSRPRKLYKHSLTSSRIAKG [S16L] — lower, 3.92
- DRKLHSRPRKLYKHSSTYSRIAKG [S18Y] — lower, 2.88
- DRKLHSRPRKLYKHSSTPSRIAKG [S18P] — lower, 3.93
- DRKLHSRPRKLYKHSSTKSRIAKG [S18K] — lower, 3.4
- DRKLHSRPRKLYKHSSTLSRIAKG [S18L] — higher, 4.3
- DRKLHSRPRKLYKHSSTVSRIAKG [S18V] — higher, 4.07
- DRKLHSRPRKLYKHSSTNSRIAKG [S18N] — higher, 4.36
- DRKLHSRPRKLYKHSSTISRIAKG [S18I] — lower, 3.54
- DRKLHSRPRKLYKHSSTASRIAKG [S18A] — higher, 4.42
- DRKLHSRPRKLYKHSSTFSRIAKG [S18F] — lower, 3.04
- DRKLHSRPRKLYKHSSTHSRIAKG [S18H] — lower, 3.6
- DRKLHSRPRKLYKHSSTQSRIAKG [S18Q] — lower, 3.95
- DRKLHSRPRKLYKHSSTWSRIAKG [S18W] — lower, 2.71
- DRKLHSRPRKLYKHSSTTSRIAKG [S18T] — lower, 3.65
- DRKLHSRPRKLYKHSSTDSRIAKG [S18D] — higher, 4.13
- DRKLHSRPRKLYKHSSTESRIAKG [S18E] — higher, 4.38
- DRKLHSRPRKLYKHSSTCSRIAKG [S18C] — lower, 3.27
- DRKLHSRPRKLYKHSSTMSRIAKG [S18M] — lower, 3.63
- DRKLHSRPRKLYKHSSTGSRIAKG [S18G] — lower, 3.99
- DRKLHSRPRKLYKHSSTRSRIAKG [S18R] — lower, 3.63
- DRKLHSRPRKLYKHSSTSARIAKG [S19A] — lower, 3.55
- DRKLHSRPRKLYKHSSTSWRIAKG [S19W] — lower, 3.22
- DRKLHSRPRKLYKHSSTSLRIAKG [S19L] — lower, 3.45
- DRKLHSRPRKLYKHSSTSGRIAKG [S19G] — lower, 3.57
- DRKLHSRPRKLYKHSSTSRRIAKG [S19R] — higher, 4.53
- DRKLHSRPRKLYKHSSTSKRIAKG [S19K] — higher, 4.18
- DRKLHSRPRKLYKHSSTSYRIAKG [S19Y] — lower, 2.62
- DRKLHSRPRKLYKHSSTSERIAKG [S19E] — higher, 4.42
- DRKLHSRPRKLYKHSSTSMRIAKG [S19M] — lower, 3.07
- DRKLHSRPRKLYKHSSTSVRIAKG [S19V] — lower, 3.65
- DRKLHSRPRKLYKHSSTSIRIAKG [S19I] — lower, 3.7
- DRKLHSRPRKLYKHSSTSFRIAKG [S19F] — lower, 3.23
- DRKLHSRPRKLYKHSSTSPRIAKG [S19P] — higher, 4.34
- DRKLHSRPRKLYKHSSTSQRIAKG [S19Q] — lower, 3.63
- DRKLHSRPRKLYKHSSTSDRIAKG [S19D] — lower, 3.93
- DRKLHSRPRKLYKHSSTSTRIAKG [S19T] — higher, 4.4
- DRKLHSRPRKLYKHSSTSNRIAKG [S19N] — lower, 3.58
- DRKLHSRPRKLYKHSSTSCRIAKG [S19C] — lower, 3.62
- DRKLHSRPRKLYKHSSTSHRIAKG [S19H] — lower, 3.5
- DRKLHSRPRKLYKHSSTSSRIAKS [G24S] — lower, 3.65
- DRKLHSRPRKLYKHSSTSSRIAKP [G24P] — higher, 4.05
- DRKLHSRPRKLYKHSSTSSRIAKI [G24I] — lower, 3.21
- DRKLHSRPRKLYKHSSTSSRIAKE [G24E] — higher, 4.5
- DRKLHSRPRKLYKHSSTSSRIAKC [G24C] — lower, 3.3
- DRKLHSRPRKLYKHSSTSSRIAKD [G24D] — lower, 3.65
- DRKLHSRPRKLYKHSSTSSRIAKK [G24K] — higher, 4.14
- DRKLHSRPRKLYKHSSTSSRIAKL [G24L] — lower, 3.28
- DRKLHSRPRKLYKHSSTSSRIAKQ [G24Q] — lower, 3.92
- DRKLHSRPRKLYKHSSTSSRIAKA [G24A] — lower, 3.61
- DRKLHSRPRKLYKHSSTSSRIAKV [G24V] — lower, 3.74
- DRKLHSRPRKLYKHSSTSSRIAKH [G24H] — lower, 3.35
- DRKLHSRPRKLYKHSSTSSRIAKW [G24W] — lower, 2.65
- DRKLHSRPRKLYKHSSTSSRIAKM [G24M] — lower, 3.38
- DRKLHSRPRKLYKHSSTSSRIAKY [G24Y] — lower, 3.33
- DRKLHSRPRKLYKHSSTSSRIAKF [G24F] — lower, 3.19
